Seven molecules from patent US20250051474A1, “ANTI-CD97 ANTIBODIES AND ANTIBODY-DRUG CONJUGATES” (New York University, priority 2023, published 2025) can be followed below.

Numbering of substitutions follows the chain as printed.

Sequences and labels used below:
T1: CD97 (ADGRE5) isoform 1 ectodomain, purified and biotinylated (human, UniProt P48960 21-552, limits assumed, biotinylated in vitro using the BirA enzyme)
T1 construct: the whole entry for isoform 1 is named here; also called CD97 isoform 1; Biotinylated CD97 isoform 1
T1 sequence: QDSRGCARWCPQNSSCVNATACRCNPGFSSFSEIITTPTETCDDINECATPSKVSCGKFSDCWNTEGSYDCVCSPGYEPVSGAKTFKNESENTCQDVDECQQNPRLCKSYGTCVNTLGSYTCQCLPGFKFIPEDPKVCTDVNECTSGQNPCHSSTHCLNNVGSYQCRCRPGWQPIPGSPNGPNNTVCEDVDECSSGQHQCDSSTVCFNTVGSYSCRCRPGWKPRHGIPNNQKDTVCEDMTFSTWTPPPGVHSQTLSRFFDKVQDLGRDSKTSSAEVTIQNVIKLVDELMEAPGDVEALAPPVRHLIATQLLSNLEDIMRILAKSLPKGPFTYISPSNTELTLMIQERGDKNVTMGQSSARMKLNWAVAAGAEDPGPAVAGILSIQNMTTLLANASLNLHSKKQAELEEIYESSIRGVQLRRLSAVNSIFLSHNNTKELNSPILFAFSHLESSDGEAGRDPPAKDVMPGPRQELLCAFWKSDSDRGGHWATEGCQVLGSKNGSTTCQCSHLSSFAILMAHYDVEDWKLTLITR

T2: CD97 (ADGRE5) isoform 2 ectodomain, purified and biotinylated (human, UniProt P48960 21-552, biotinylated in vitro using the BirA enzyme)
T2 construct: the whole entry for isoform 2 is named here; also called CD97 isoform 2
T2 sequence: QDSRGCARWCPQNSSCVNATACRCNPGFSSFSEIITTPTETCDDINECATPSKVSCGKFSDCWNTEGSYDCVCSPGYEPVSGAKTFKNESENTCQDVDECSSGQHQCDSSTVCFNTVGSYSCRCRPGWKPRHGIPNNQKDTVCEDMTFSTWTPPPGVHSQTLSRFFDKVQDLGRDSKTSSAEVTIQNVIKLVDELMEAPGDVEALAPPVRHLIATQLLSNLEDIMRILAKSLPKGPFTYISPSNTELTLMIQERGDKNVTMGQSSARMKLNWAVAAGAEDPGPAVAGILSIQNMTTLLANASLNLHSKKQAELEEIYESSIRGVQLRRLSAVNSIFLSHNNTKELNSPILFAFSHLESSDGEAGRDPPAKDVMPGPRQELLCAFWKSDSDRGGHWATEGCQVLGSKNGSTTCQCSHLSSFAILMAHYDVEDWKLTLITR

B1: Fab B23 (Fab, V domains shown)
VH: EVQLVESGGGLVQPGGSLRLSCAASGFTVSSSSIHWVRQAPGKGLEWVASIYPYSGSTSYADSVKGRFTISADTSKNTAYLQMNSLRAEDTAVYYCARSLGWHRHYNYYFYFYANAIDYWGQGTLVTVSS
VL: DIQMTQSPSSLSASVGDRVTITCRASQSVSSAVAWYQQKPGKAPKLLIYSASSLYSGVPSRFSGSRSGTDFTLTISSLQPEDFATYYCQQYWGSDPITFGQGTKVEIKR
notes: first discovery campaign; also called Antibody Clone B23
B2: Fab C14 (Fab, V domains shown)
VH: EVQLVESGGGLVQPGGSLRLSCAASGFTVSSSSIHWVRQAPGKGLEWVASIYSYSGSTSYADSVKGRFTISADTSKNTAYLQMNSLRAEDTAVYYCARSFGWGQSFYYSHYFYITAFDYWGQGTLVTVSS
VL: B1 VL with G93H, S94E, D95S, P96L
notes: first discovery campaign; also called Antibody Clone C14
B3: Fab A1 (Fab, V domains shown)
VH: EVQLVESGGGLVQPGGSLRLSCAASGFTISSSSIHWVRQAPGKGLEWVASIYSYYGSTYYADSVKGRFTISADTSKNTAYLQMNSLRAEDTAVYYCARPVYGQLGYWTQRWSGMDYWGQGTLVTVSS
VL: DIQMTQSPSSLSASVGDRVTITCRASQSVSSAVAWYQQKPGKAPKLLIYSASSLYSGVPSRFSGSRSGTDFTLTISSLQPEDFATYYCQQYSWSSYLITFGQGTKVEIKR
notes: first discovery campaign; also called Antibody Clone A1
B4: Fab B3 (Fab, V domains shown)
VH: EVQLVESGGGLVQPGGSLRLSCAASGFTFSSSSIHWVRQAPGKGLEWVASISPYSGYTSYADSVKGRFTISADTSKNTAYLQMNSLRAEDTAVYYCARAYYYWSHWYMHYVSYPGGMDYWGQGTLVTVSS
VL: B3 VL with Y91L, S92R, W93H, S94Y, Y96H
notes: first discovery campaign; also called Antibody Clone B3
B5: Fab B34 (Fab, V domains shown)
VH: EVQLVESGGGLVQPGGSLRLSCAASGFTVSYSSIHWVRQAPGKGLEWVASIYSSSGYTSYADSVKGRFTISADTSKNTAYLQMNSLRAEDTAVYYCARSYYRYYLSPIYWGSWGMDYWGQGTLVTVSS
VL: B3 VL with Y91S, S92G, W93Y, S94Y, S95G, Y96H
notes: first discovery campaign; also called Antibody Clone B34
B6: Fab B25 (Fab, V domains shown)
VH: EVQLVESGGGLVQPGGSLRLSCAASGFTISSSSIHWVRQAPGKGLEWVASISSYSGSTSYADSVKGRFTISADTSKNTAYLQMNSLRAEDTAVYYCARSFFKYYLWYGYHNYWSAIDYWGQGTLVTVSS
VL: DIQMTQSPSSLSASVGDRVTITCRASQSVSSAVAWYQQKPGKAPKLLIYSASSLYSGVPSRFSGSRSGTDFTLTISSLQPEDFATYYCQQSSSSLITFGQGTKVEIKR
notes: first discovery campaign; also called Antibody Clone B25
B7: Fab B20 (Fab, V domains shown)
VH: EVQLVESGGGLVQPGGSLRLSCAASGFTISSSSIHWVRQAPGKGLEWVASISSSSGSTSYADSVKGRFTISADTSKNTAYLQMNSLRAEDTAVYYCARIRHYHWYEIPYWDWAIDYWGQGTLVTVSS
VL: B6 VL
notes: first discovery campaign; also called Antibody Clone B20

For one assay, the target named is T1, CD97 (ADGRE5) isoform 1 ectodomain, …. Put plainly: bead-based binding titration (biotinylated antigen on streptavidin beads, flow cytometry), 1:1 fit.
The molecule B1 showed a Kd of 0.9 nM.

In turn, B2 gave a Kd of 4.7 nM.

B3 registered a Kd of 1.7 nM.

B4 displayed a Kd of 5.8 nM.

Regarding B5, the Kd turned out to be 2.5 nM.

Regarding B6, the Kd came out at 5.8 nM.

With B7, the Kd is 2.3 nM.

The target in another assay is T2, CD97 (ADGRE5) isoform 2 ectodomain, …. Described as above.
Take B1: the Kd was found to be 0.9 nM.

Molecule B2 displayed a Kd of 5 nM.

B3 returned an equilibrium dissociation constant (Kd) of 1.7 nM.

Molecule B4 had a Kd of 4.3 nM.

In turn, B5 gave a Kd of 2.7 nM.

Turning to B6, the Kd was 5.5 nM.

B7 gave a Kd of 2.9 nM.
